Paper PMC12880746

Legend:
[1] = target: CspA-His6 (Clostridioides difficile); test: SEC; individually Ni-affinity-purified Csp-His6 proteins on Superdex 200 Increase 10/300 GL; 200 mM NaCl, 10 mM Tris-HCl pH 7.5, 5% glycerol, 1 mM dithiothreitol; apparent MW from gel filtration standard
[2] = target: CspB-His6 (Clostridioides difficile); test: as above
[3] = target: CspC-CPD-His6 (Clostridioides difficile); test: SEC; elution fraction of a CspC-CPD-His6:CspA co-affinity purification (proteins co-expressed in E. coli) on Superdex 200 Increase 10/300 GL; 200 mM NaCl, 10 mM Tris-HCl pH 7.5, 5% glycerol, 1 mM dithiothreitol; fractions on SDS-PAGE; complex peak re-run on SEC; also run with TA and CaCl2 without difference

CspA-His6 (domain or fragment)
stoichiometry N [1]: 2

CspB-His6 (domain or fragment)
stoichiometry N [2]: 2

untagged CspA (CspA_(583-1132)) (domain or fragment)
stoichiometry N (ratio CspA:CspC-CPD-His6) [3]: 1
